The target in this experiment is spike proteins of the tested omicron. Nature of the experiment: cell-based or functional assay.

Here are results for 1 molecule from patent US20250313611A1.

Where “and” joins values, the source holds several entries; their conditions need not be identical. Identical values can stand only once.

B1: VHH R3_DC23 (VHH)
VHH: QVQLQESGGGLVQAGDSLTLSCAVSGRIFSTYTMGWFRQAPGKEREFVAAVRWGAGTIYYADSMKGRFTISRDSAKNTVDLQMNSTKPEDTAVYYCGAAYVSKANYGSLWYQDSRRYDYWGQGTQVTVSS
As to B1, the IC50, neutralisation of VSV spike pseudotypes was 2.9 ng/mL and 5.7 ng/mL.
